T1: EsCas13d, nuclease-dead (Eubacterium siraeum, UniProt B0MS50, R295A;H300A;R849A;H854A)
T1 sequence: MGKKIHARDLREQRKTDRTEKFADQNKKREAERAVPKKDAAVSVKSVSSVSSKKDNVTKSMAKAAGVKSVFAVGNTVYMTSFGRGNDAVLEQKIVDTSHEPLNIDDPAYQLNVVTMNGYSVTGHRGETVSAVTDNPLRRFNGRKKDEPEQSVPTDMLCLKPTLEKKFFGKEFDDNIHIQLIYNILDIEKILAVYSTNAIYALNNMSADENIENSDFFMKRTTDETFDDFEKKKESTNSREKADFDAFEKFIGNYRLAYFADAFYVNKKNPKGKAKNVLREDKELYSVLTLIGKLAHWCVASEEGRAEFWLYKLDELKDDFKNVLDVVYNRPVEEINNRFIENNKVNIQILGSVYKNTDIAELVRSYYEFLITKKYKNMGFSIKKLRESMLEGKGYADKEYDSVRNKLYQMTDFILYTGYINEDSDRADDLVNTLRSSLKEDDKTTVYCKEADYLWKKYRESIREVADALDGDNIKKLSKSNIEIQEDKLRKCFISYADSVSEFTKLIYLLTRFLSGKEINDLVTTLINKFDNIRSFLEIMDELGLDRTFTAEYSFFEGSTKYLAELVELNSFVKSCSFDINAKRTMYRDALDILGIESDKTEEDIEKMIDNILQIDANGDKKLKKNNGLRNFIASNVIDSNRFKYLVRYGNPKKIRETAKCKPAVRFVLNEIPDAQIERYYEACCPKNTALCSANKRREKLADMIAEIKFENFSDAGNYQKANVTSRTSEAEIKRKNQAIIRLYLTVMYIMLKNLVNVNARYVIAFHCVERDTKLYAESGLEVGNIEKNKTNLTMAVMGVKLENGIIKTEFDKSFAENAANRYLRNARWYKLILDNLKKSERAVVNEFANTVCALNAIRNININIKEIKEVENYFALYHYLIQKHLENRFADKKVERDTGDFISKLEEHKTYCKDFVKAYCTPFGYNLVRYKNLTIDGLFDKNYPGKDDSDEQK


target: T1, EsCas13d, nuclease-dead; experiment: crRNA (strand 1, pre-loaded); Mg2+; 40 mM Tris-HCl pH 7.5, 150 mM NaCl, 6 mM MgCl2, 1 mM DTT, 0.1% Tween-20, 0.2 mg/ml BSA; 25 C; 10 min per concentration, then washed; conditions: tags: His6-TwinStrep-SUMO cleaved; N-terminal SNAP kept (SNAP-Surface 488); label: 3' end held by stalled T7 RNA polymerase

Binder	Kd [nM]
target 1 insC 3' of 10,insU 3' of 5 (mixed) RNA 1: CACCCGUGCAAAAAUGCAGGGGUCUAAAACUGAGCGGAUAACCUCUCUAUGG RNA 2: GGGAAUGGAUCCACAUCUACGAAUUCGUACCAUAGAGAGGUUCAUCCGUCUCACCGAGAUCGGAAGAGCACACGU	14 ± 2.4
target 1 insC 3' of 18,insU 3' of 1 (mixed) RNA 1: CACCCGUGCAAAAAUGCAGGGGUCUAAAACUGAGCGGAUAACCUCUCUAUGG RNA 2: GGGAAUGGAUCCACAUCUACGAAUUCGUACCAUACGAGAGGUUAUCCGCUCAUCCGAGAUCGGAAGAGCACACGU	30.7 ± 2.6
target 1 G5C,G15A (mixed) RNA 1: CACCCGUGCAAAAAUGCAGGGGUCUAAAACUGAGCGGAUAACCUCUCUAUGG RNA 2: GGGAAUGGAUCCACAUCUACGAAUUCGUACCAUAGAAAGGUUAUCCCCUCACCGAGAUCGGAAGAGCACACGU	19.9 ± 1.8
target 1 A9U,U10G (mixed) RNA 1: CACCCGUGCAAAAAUGCAGGGGUCUAAAACUGAGCGGAUAACCUCUCUAUGG RNA 2: GGGAAUGGAUCCACAUCUACGAAUUCGUACCAUAGAGAGGUGUUCCGCUCACCGAGAUCGGAAGAGCACACGU	21.7 ± 2.1
target 1 complement block 4-11 (mixed) RNA 1: CACCCGUGCAAAAAUGCAGGGGUCUAAAACUGAGCGGAUAACCUCUCUAUGG RNA 2: GGGAAUGGAUCCACAUCUACGAAUUCGUACCAUAGAGAGGAAUAGGCGUCACCGAGAUCGGAAGAGCACACGU	12.4 ± 0.6
target 1 insC 3' of 13,insC 3' of 10 (mixed) RNA 1: CACCCGUGCAAAAAUGCAGGGGUCUAAAACUGAGCGGAUAACCUCUCUAUGG RNA 2: GGGAAUGGAUCCACAUCUACGAAUUCGUACCAUAGAGAGCGUUCAUCCGCUCACCGAGAUCGGAAGAGCACACGU	12.9 ± 1.3
target 1 insU 3' of 6,insG 3' of 1 (mixed) RNA 1: CACCCGUGCAAAAAUGCAGGGGUCUAAAACUGAGCGGAUAACCUCUCUAUGG RNA 2: GGGAAUGGAUCCACAUCUACGAAUUCGUACCAUAGAGAGGUUAUCCUGCUCAGCCGAGAUCGGAAGAGCACACGU	12.5 ± 0.8
target 1 insA 3' of 22,insA 3' of 10 (mixed) RNA 1: CACCCGUGCAAAAAUGCAGGGGUCUAAAACUGAGCGGAUAACCUCUCUAUGG RNA 2: GGGAAUGGAUCCACAUCUACGAAUUCGUACACAUAGAGAGGUUAAUCCGCUCACCGAGAUCGGAAGAGCACACGU	14.6 ± 1
target 1 del2,del14 (mixed) RNA 1: CACCCGUGCAAAAAUGCAGGGGUCUAAAACUGAGCGGAUAACCUCUCUAUGG RNA 2: GGGAAUGGAUCCACAUCUACGAAUUCGUACCAUAGAGGGUUAUCCGCUACCGAGAUCGGAAGAGCACACGU	64 ± 11
target 1 C7A,U10A (mixed) RNA 1: CACCCGUGCAAAAAUGCAGGGGUCUAAAACUGAGCGGAUAACCUCUCUAUGG RNA 2: GGGAAUGGAUCCACAUCUACGAAUUCGUACCAUAGAGAGGUAAUACGCUCACCGAGAUCGGAAGAGCACACGU	8.48 ± 0.31
target 1 insC 3' of 16,insG 3' of 8 (mixed) RNA 1: CACCCGUGCAAAAAUGCAGGGGUCUAAAACUGAGCGGAUAACCUCUCUAUGG RNA 2: GGGAAUGGAUCCACAUCUACGAAUUCGUACCAUAGACGAGGUUAUGCCGCUCACCGAGAUCGGAAGAGCACACGU	56 ± 13
target 1 A1U,A9G (mixed) RNA 1: CACCCGUGCAAAAAUGCAGGGGUCUAAAACUGAGCGGAUAACCUCUCUAUGG RNA 2: GGGAAUGGAUCCACAUCUACGAAUUCGUACCAUAGAGAGGUUGUCCGCUCUCCGAGAUCGGAAGAGCACACGU	13.1 ± 1.3
target 1 complement block 2-8 (mixed) RNA 1: CACCCGUGCAAAAAUGCAGGGGUCUAAAACUGAGCGGAUAACCUCUCUAUGG RNA 2: GGGAAUGGAUCCACAUCUACGAAUUCGUACCAUAGAGAGGUUAAGGCGAGACCGAGAUCGGAAGAGCACACGU	10.5 ± 0.5
target 1 A1G,C4U (mixed) RNA 1: CACCCGUGCAAAAAUGCAGGGGUCUAAAACUGAGCGGAUAACCUCUCUAUGG RNA 2: GGGAAUGGAUCCACAUCUACGAAUUCGUACCAUAGAGAGGUUAUCCGUUCGCCGAGAUCGGAAGAGCACACGU	31 ± 5
target 1 insC 3' of 18,insU 3' of 9 (mixed) RNA 1: CACCCGUGCAAAAAUGCAGGGGUCUAAAACUGAGCGGAUAACCUCUCUAUGG RNA 2: GGGAAUGGAUCCACAUCUACGAAUUCGUACCAUACGAGAGGUUAUUCCGCUCACCGAGAUCGGAAGAGCACACGU	51 ± 11
target 1 insU 3' of 20,insG 3' of 10 (mixed) RNA 1: CACCCGUGCAAAAAUGCAGGGGUCUAAAACUGAGCGGAUAACCUCUCUAUGG RNA 2: GGGAAUGGAUCCACAUCUACGAAUUCGUACCAUUAGAGAGGUUGAUCCGCUCACCGAGAUCGGAAGAGCACACGU	29 ± 6
target 1 U8C,C21A (mixed) RNA 1: CACCCGUGCAAAAAUGCAGGGGUCUAAAACUGAGCGGAUAACCUCUCUAUGG RNA 2: GGGAAUGGAUCCACAUCUACGAAUUCGUACAAUAGAGAGGUUACCCGCUCACCGAGAUCGGAAGAGCACACGU	44 ± 5
target 1 insC 3' of 9,insC 3' of 9 (mixed) RNA 1: CACCCGUGCAAAAAUGCAGGGGUCUAAAACUGAGCGGAUAACCUCUCUAUGG RNA 2: GGGAAUGGAUCCACAUCUACGAAUUCGUACCAUAGAGAGGUUACCUCCGCUCACCGAGAUCGGAAGAGCACACGU	10.7 ± 0.7
target 1 insA 3' of 15,insA 3' of 8 (mixed) RNA 1: CACCCGUGCAAAAAUGCAGGGGUCUAAAACUGAGCGGAUAACCUCUCUAUGG RNA 2: GGGAAUGGAUCCACAUCUACGAAUUCGUACCAUAGAGAAGGUUAUACCGCUCACCGAGAUCGGAAGAGCACACGU	7.4 ± 0.4
target 1 insC 3' of 20,insC 3' of 5 (mixed) RNA 1: CACCCGUGCAAAAAUGCAGGGGUCUAAAACUGAGCGGAUAACCUCUCUAUGG RNA 2: GGGAAUGGAUCCACAUCUACGAAUUCGUACCACUAGAGAGGUUAUCCGCCUCACCGAGAUCGGAAGAGCACACGU	5.23 ± 0.33
target 1 U3G,A18G (mixed) RNA 1: CACCCGUGCAAAAAUGCAGGGGUCUAAAACUGAGCGGAUAACCUCUCUAUGG RNA 2: GGGAAUGGAUCCACAUCUACGAAUUCGUACCAUGGAGAGGUUAUCCGCGCACCGAGAUCGGAAGAGCACACGU	87 ± 23
target 1 G13A,C21A (mixed) RNA 1: CACCCGUGCAAAAAUGCAGGGGUCUAAAACUGAGCGGAUAACCUCUCUAUGG RNA 2: GGGAAUGGAUCCACAUCUACGAAUUCGUACAAUAGAGAAGUUAUCCGCUCACCGAGAUCGGAAGAGCACACGU	35 ± 4
target 1 insC 3' of 14,insC 3' of 14 (mixed) RNA 1: CACCCGUGCAAAAAUGCAGGGGUCUAAAACUGAGCGGAUAACCUCUCUAUGG RNA 2: GGGAAUGGAUCCACAUCUACGAAUUCGUACCAUAGAGACCGGUUAUCCGCUCACCGAGAUCGGAAGAGCACACGU	42 ± 4
target 1 C7U,U19G (mixed) RNA 1: CACCCGUGCAAAAAUGCAGGGGUCUAAAACUGAGCGGAUAACCUCUCUAUGG RNA 2: GGGAAUGGAUCCACAUCUACGAAUUCGUACCAGAGAGAGGUUAUUCGCUCACCGAGAUCGGAAGAGCACACGU	57 ± 7
